This is an account of results in patent publication US8216580B2, “Sulfatases and methods of use thereof” (The Regents of the University of California, priority 2000, dated 2012).

For data set [1] the following is noted: comparison enzymes; cited from earlier work.
A short description of data set [2]: Arylsulfatase activity assay with 4-MUS substrate. The class given is biochemical. Particulars: 1 milliunit, 24 hr incubation. As for the experimental part: The 100-fold concentrated conditioned medium (CM) derived from each transfection of CHO cells as described above was dialyzed into 50 mM HEPES, pH 8.0. The His-tagged fusion proteins were bound to a Ni-NTA resin (QIAGEN) by rotation at 4° C. over night, then washed with 50 mM HEPES (pH 8.0), 3 times. 250 mM imidazole in 50 mM HEPES, pH 8.0 was used to elute the His-tagged fusion proteins from Ni-NTA. The resins with boud material or the eluates were mixed with 10 mM 4-methylumbelliferyl-sulfate (4-MUS; a substrate for sulfatases), and 10 mM lead acetate, in a total volume of 100 μl. The reaction mixtures were incubated at 37° C. for various periods of time. Reactions were terminated by the addition of 100 μl of 0.5 M Na2CO3/NaHCO3, pH 10.7 to 20 μl of the reaction mixture. The fluorescence of 4-methylumbelliferone was measured on a Multi-Well Plate Reader CytoFluorII (PerSeptive Biosystems). The fluorescence was determined at an excitation wavelength of 360 nm and emission wavelength of 460 nm. A substrate dose response curve was performed over the concentration range of 1 to 10 mM 4-MUS.
The synthetic fluorogenic compound 4-methylumbelliferyl sulfate (4-MUS) serves as a substrate for most sulfatases, both in the lysosomal and non-lysosomal classes. CHO cells were transfected with a cDNA for HSulf-1 or HSulf-2 or a vector control. Conditioned medium was collected and incubated with nickel resin (Ni-NTA) to bind the His-tagged recombinant proteins. The bead-bound material was assayed for activity on 4-MUS. For both enzymes, hydrolysis depended on time of reaction (FIG. 15A), concentration of substrate (FIG. 15B), and amount of CM (FIG. 15C). From the substrate dose-response curves of FIG. 15B and based on estimates of Sulf protein levels in CM, we approximated Vmax for the two Sulfs to be in the range of 1000-2000 nmol per min per mg of Sulf protein. Human glucosamine-6-sulfatase has a considerably lower Vmax against 4-MUS ([…]) whereas the Vmax of human N-acetylgalactosamine-4-sulfatase (arylsulfatase B) is much higher (48000).
HSulf-1, HSulf-2 or their mutated forms (HSulf-1 ΔCC and HSulf-2 ΔCC) was purified from the conditioned medium of transfected CHO cells by binding to Ni-NTA beads. A) The bead-bound material was tested for arylsulfatase activity as a function of time against 10 mM 4-MUS substrate at pH 8. The “no-enzyme” control was based on testing conditioned medium from vector-control transfected CHO cells. No activity was detected in the absence of added substrate (not shown). […] The activity of each Sulf was determined relative to that of beads exposed to an equivalent volume of vector-control conditioned medium. The activity of HG6S was determined (24 hr incubation) relative to that of the buffer. […]

With “human N-acetylgalactosamine-4-sulfatase: human N-acetylgalactosamine-4-sulfatase (arylsulfatase B), comparison enzyme [reference compound]”, the Vmax against 4-MUS in data set [1] was 48000 nmol/min/mg.

B1: Human glucosamine-6-sulfatase: human lysosomal glucosamine-6-sulfatase, purchased from Glyko Inc. (protein, UniProt P15586 37-552, looked up)
N-acetylglucosamine-6-sulfatas …: VFGVAAGTRRPNVVLLLTDDQDEVLGGMTPLKKTKALIGEMGMTFSSAYVPSALCCPSRASILTGKYPHNHHVVNNTLEGNCSSKSWQKIQEPNTFPAILRSMCGYQTFFAGKYLNEYGAPDAGGLEHVPLGWSYWYALEKNSKYYNYTLSINGKARKHGENYSVDYLTDVLANVSLDFLDYKSNFEPFFMMIATPAPHSPWTAAPQYQKAFQNVFAPRNKNFNIHGTNKHWLIRQAKTPMTNSSIQFLDNAFRKRWQTLLSVDDLVEKLVKRLEFTGELNNTYIFYTSDNGYHTGQFSLPIDKRQLYEFDIKVPLLVRGPGIKPNQTSKMLVANIDLGPTILDIAGYDLNKTQMDGMSLLPILRGASNLTWRSDVLVEYQGEGRNVTDPTCPSLSPGVSQCFPDCVCEDAYNNTYACVRTMSALWNLQYCEFDDQEVFVEVYNLTADPDQITNIAKTIDPELLGKMNYRLMMLQSCSGPTCRTPGVFDPGYRFDPRLMFSNRGSVRTRRFSKHLL
With B1, the “arylsulfatase activity at pH 5” value in data set [2] (pH 5) is on record as “measurable activity”. The “arylsulfatase activity at pH 8” value in data set [2] (pH 8) is recorded as “none”. The Vmax against 4-MUS in data set [1] was 100 nmol/min/mg.
